Experiment [1] has as its target T1, FcγRIIIa (human, UniProt P08637 17-208).
T1 construct: also called FcγRIIIa/b (first member)
Kind of experiment: stated in the variant's description; method not given.

Experiment [2] deals with T2, FcγRIIIb (human, UniProt O75015 17-200).
T2 construct: also called FcγRIIIa/b (second member)
The description is as above.

In experiment [3] the target is T1, FcγRIIIa. Kind of experiment: stated in the variant's description; FcγR binding profile in FIG. 22A.
The target in experiment [4] is T2, FcγRIIIb. Described as above.

T1 sequence (P08637 17-208 limits assumed): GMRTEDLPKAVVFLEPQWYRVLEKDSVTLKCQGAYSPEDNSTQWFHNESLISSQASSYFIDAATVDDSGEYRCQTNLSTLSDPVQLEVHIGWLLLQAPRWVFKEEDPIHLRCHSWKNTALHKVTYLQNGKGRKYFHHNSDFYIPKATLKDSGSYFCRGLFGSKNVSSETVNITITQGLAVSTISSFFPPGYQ
T2 sequence (O75015 17-200 limits assumed): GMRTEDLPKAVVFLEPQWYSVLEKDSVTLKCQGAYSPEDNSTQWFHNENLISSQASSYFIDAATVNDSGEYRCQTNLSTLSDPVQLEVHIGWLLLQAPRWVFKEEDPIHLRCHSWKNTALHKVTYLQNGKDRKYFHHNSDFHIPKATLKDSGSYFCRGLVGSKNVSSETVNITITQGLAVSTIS

B1: Flu1_ALIE (antibody)
heavy: not shown
light: DIQMTQSPSSLSASVGDRVTITCRTSQSLSSYLHWYQQKPGKAPKLLIYAASSLQSGVPSRFSGSGSGTDFTLTISSLQPEDFATYYCQQSRTFGQGTKVEIKRTVAAPSVFIFPPSDEQLKSGTASVVCLLNNFYPREAKVQWKVDNALQSGNSQESVTEQDSKDSTYSLSSTLTLSKADYEKHKVYACEVTHQGLSSPVTKSFNRGEC
Take B1: the binding result with FcγRIIIa [1] and with FcγRIIIb [2] was “binds” each time.

B2: Flu1_afucosylated (antibody)
heavy: not shown
light: DIQMTQSPSSLSASVGDRVTITCRTSQSLSSYLHWYQQKPGKAPKLLIYAASSLQSGVPSRFSGSGSGTDFTLTISSLQPEDFATYYCQQSRTFGQGTKVEIKRTVAAPSVFIFPPSDEQLKSGTASVVCLLNNFYPREAKVQWKVDNALQSGNSQESVTEQDSKDSTYSLSSTLTLSKADYEKHKVYACEVTHQGLSSPVTKSFNRGEC
notes: also called the afucosylated antibody
In the case of B2, the binding result with FcγRIIIa [1] and with FcγRIIIb [2] was “binds” throughout.

B3: 1A01_ALIE (antibody)
heavy: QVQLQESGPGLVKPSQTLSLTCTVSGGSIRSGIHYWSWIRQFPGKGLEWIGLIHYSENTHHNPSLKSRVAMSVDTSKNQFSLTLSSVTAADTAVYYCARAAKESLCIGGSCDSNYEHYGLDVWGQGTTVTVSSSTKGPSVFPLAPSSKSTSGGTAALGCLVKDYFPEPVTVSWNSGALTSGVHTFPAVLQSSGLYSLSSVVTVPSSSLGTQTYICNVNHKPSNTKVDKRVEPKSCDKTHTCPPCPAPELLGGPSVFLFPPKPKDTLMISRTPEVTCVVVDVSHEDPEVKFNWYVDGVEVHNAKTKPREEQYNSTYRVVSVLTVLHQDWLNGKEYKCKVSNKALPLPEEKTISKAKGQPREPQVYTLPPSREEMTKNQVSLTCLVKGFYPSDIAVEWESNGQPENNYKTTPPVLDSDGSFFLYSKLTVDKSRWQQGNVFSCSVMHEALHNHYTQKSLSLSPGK
light: DIQMTQSPSSLSASIGDRVTITCRASQSIRNYLNWYQQKPGKAPKLVIYAVSNLQSGVPSRFSGSGSGTDFTLTISSLQPEDLATYYCQQSYSTLPYTFGQGTKVEIKLERADAAPTVSIFPPSSEQLTSGGASVVCFLNNFYPKDINVKWKIDGSERQNGVLNSWTDQDSKDSTYSMSSTLTLTKDEYERHNSYTCEATHKTSTSPIVKSFNRNEC
B3: the binding result in the experiment with FcγRIIIa [1] and with FcγRIIIb [2] was “binds” each time.

B4: 3C05_ALIE (antibody)
heavy: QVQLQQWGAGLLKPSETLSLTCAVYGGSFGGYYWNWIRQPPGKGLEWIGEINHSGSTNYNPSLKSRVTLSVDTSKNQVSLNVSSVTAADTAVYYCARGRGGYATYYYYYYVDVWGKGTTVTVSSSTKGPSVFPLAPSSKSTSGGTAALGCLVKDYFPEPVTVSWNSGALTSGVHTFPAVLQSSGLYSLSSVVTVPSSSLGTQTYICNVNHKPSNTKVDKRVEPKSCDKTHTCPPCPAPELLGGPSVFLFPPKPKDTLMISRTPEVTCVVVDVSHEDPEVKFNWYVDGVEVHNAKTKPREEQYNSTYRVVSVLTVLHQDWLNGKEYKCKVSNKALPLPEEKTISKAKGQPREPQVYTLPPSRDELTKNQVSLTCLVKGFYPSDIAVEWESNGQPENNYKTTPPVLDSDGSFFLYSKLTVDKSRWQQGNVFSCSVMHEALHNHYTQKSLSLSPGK
light: EIVLTQSPATLSLSPGERATLSCRASQSVSSYLAWYQQKPGQAPRLLIYDASKRATGIPARFSGSGSGTDFTLTISSLEPEDFAVYYCQQRSNWLTFGGGTKVELERTVAAPSVFIFPPSDEQLKSGTASVVCLLNNFYPREAKVQWKVDNALQSGNSQESVTEQDSKDSTYSLSSTLTLSKADYEKHKVYACEVTHQGLSSPVTKSFNRGEC
Turning to B4, the binding result with FcγRIIIa [3] and with FcγRIIIb [4] was “binds” each time.

The values above are taken from US20220298230A1 (ROCKEFELLER UNIVERSITY, published 2022).
